The record followed here is article PMC13098475.

For the assay, the target named is traptavidin (streptavidin-variant), expressed and purified by IMAC (Streptomyces avidinii) (UniProt P22629). Briefly: native MS; native electrospray ionization mass spectrometry of the IMAC-purified proteins; oligomeric state of the protomers (tetramer), no cross-linker.

As usually defined, the stoichiometry N is the number of molecules, sites or subunits per partner or assembly. As for “traptavidin (streptavidin-variant), expressed and purified by IMAC (from UniProt P22629 25-183) (natural protein)”, the percent of the protein that is tetrameric is 95% and the stoichiometry N is 4.
